Test results: doi:10.1101/466904 (bioRxiv, 2018)
Where two headings read alike, the source gives them in different places.

Columns and labels:
[1] = target: 3RJT protein Asn183Ala mutant (Alicyclobacillus acidocaldarius subsp. Acidocaldarius DSM446); test: SEC
Cph, Axe2 homologue [2] = test: dynamic light scattering
Cph, Axe2 homologue [3] = test: SEC
Pal, Axe2 homologue [4] = test: dynamic light scattering
Pal, Axe2 homologue [5] = test: SEC
Pda, Axe2 homologue [6] = test: dynamic light scattering
Pda, Axe2 homologue [7] = test: SEC
Pjd, Axe2 homologue [8] = test: dynamic light scattering
Pjd, Axe2 homologue [9] = test: SEC
Sku, Axe2 homologue [10] = test: dynamic light scattering
Sku, Axe2 homologue [11] = test: SEC
SEC [12] = target: the molecule itself; test: SEC
SEC [13] = target: the molecule itself; test: SEC; remark: listed apart in the source
SEC [14] = target: the molecule itself; test: SEC; remark: listed apart in the source

3RJT protein Asn183Ala mutant (enzyme) was tested. Which stoichiometry N [1] did it give?
Its stoichiometry N is 2.

With Cph, Axe2 homologue (enzyme) as the molecule, how does the stoichiometry N (Cph, Axe2 homologue [2]) read?
Its stoichiometry N is 8.

And the stoichiometry N (Cph, Axe2 homologue [3])?
Its stoichiometry N is 8.

Pal, Axe2 homologue (enzyme) was tested. Which stoichiometry N (Pal, Axe2 homologue [4]) did it give?
The stoichiometry N was 8.

What about the stoichiometry N (Pal, Axe2 homologue [5]) of the same molecule?
The stoichiometry N was 8.

Which results are given for Pda, Axe2 homologue (enzyme)?
stoichiometry N (Pda, Axe2 homologue [6]): 8; stoichiometry N (Pda, Axe2 homologue [7]): 8

Pjd, Axe2 homologue (enzyme) was tested. Which stoichiometry N (Pjd, Axe2 homologue [8]) did it give?
Its stoichiometry N is 8.

And the stoichiometry N (Pjd, Axe2 homologue [9])?
The stoichiometry N was 8.

Which results are given for Sku, Axe2 homologue (enzyme)?
stoichiometry N (Sku, Axe2 homologue [10]): 8; stoichiometry N (Sku, Axe2 homologue [11]): 8

B1: Axe2 acetyl-xylo-oligosaccharide esterase from Geobacillus stearothermophilus, wild type (enzyme)
chain: MKIGSGEKLLFIGDSITDCGRARPEGEGSFGALGTGYVAYVVGLLQAVYPELGIRVVNKGISGNTVRDLKARWEEDVIAQKPDWVSIMIGINDVWRQYDLPFMKEKHVYLDEYEATLRSLVLETKPLVKGIILMTPFYIEGNEQDPMRRTMDQYGRVVKQIAEETNSLFVDTQAAFNEVLKTLYPAALAWDRVHPSVAGHMILARAFLREIGFEWVRSR
For B1, which “stoichiometry N” value (SEC [12]) is on record?
Its value is 8.

B2: Axe2 Arg192Lys mutant (enzyme)
chain: MKIGSGEKLLFIGDSITDCGRARPEGEGSFGALGTGYVAYVVGLLQAVYPELGIRVVNKGISGNTVRDLKARWEEDVIAQKPDWVSIMIGINDVWRQYDLPFMKEKHVYLDEYEATLRSLVLETKPLVKGIILMTPFYIEGNEQDPMRRTMDQYGRVVKQIAEETNSLFVDTQAAFNEVLKTLYPAALAWDKVHPSVAGHMILARAFLREIGFEWVRSR
How did the “stoichiometry N” value (SEC [12]) turn out when B2 was run?
Its value is 2.

B3: Axe2 triple mutant Tyr184Phe-Arg205Ala-Trp215Ala (enzyme)
chain: MKIGSGEKLLFIGDSITDCGRARPEGEGSFGALGTGYVAYVVGLLQAVYPELGIRVVNKGISGNTVRDLKARWEEDVIAQKPDWVSIMIGINDVWRQYDLPFMKEKHVYLDEYEATLRSLVLETKPLVKGIILMTPFYIEGNEQDPMRRTMDQYGRVVKQIAEETNSLFVDTQAAFNEVLKTLFPAALAWDRVHPSVAGHMILAAAFLREIGFEAVRSR
For B3, which “stoichiometry N” value (SEC [12]) is on record?
Its value is 2.

B4: Axe2 Arg55Ala mutant (enzyme)
chain: MKIGSGEKLLFIGDSITDCGRARPEGEGSFGALGTGYVAYVVGLLQAVYPELGIAVVNKGISGNTVRDLKARWEEDVIAQKPDWVSIMIGINDVWRQYDLPFMKEKHVYLDEYEATLRSLVLETKPLVKGIILMTPFYIEGNEQDPMRRTMDQYGRVVKQIAEETNSLFVDTQAAFNEVLKTLYPAALAWDRVHPSVAGHMILARAFLREIGFEWVRSR
For B4, which “stoichiometry N” value (SEC [13]) is on record?
The value was 8.

B5: Axe2 Arg55Glu mutant (enzyme)
chain: MKIGSGEKLLFIGDSITDCGRARPEGEGSFGALGTGYVAYVVGLLQAVYPELGIEVVNKGISGNTVRDLKARWEEDVIAQKPDWVSIMIGINDVWRQYDLPFMKEKHVYLDEYEATLRSLVLETKPLVKGIILMTPFYIEGNEQDPMRRTMDQYGRVVKQIAEETNSLFVDTQAAFNEVLKTLYPAALAWDRVHPSVAGHMILARAFLREIGFEWVRSR
How did the “stoichiometry N” value (SEC [14]) turn out when B5 was run?
The value was 2.

And the “stoichiometry N” value (SEC [13])?
Its value is 8.

B6: Axe2 Tyr184Phe mutant (enzyme)
chain: MKIGSGEKLLFIGDSITDCGRARPEGEGSFGALGTGYVAYVVGLLQAVYPELGIRVVNKGISGNTVRDLKARWEEDVIAQKPDWVSIMIGINDVWRQYDLPFMKEKHVYLDEYEATLRSLVLETKPLVKGIILMTPFYIEGNEQDPMRRTMDQYGRVVKQIAEETNSLFVDTQAAFNEVLKTLFPAALAWDRVHPSVAGHMILARAFLREIGFEWVRSR
How did the “stoichiometry N” value (SEC [12]) turn out when B6 was run?
Its value is 2.

B7: Axe2 Trp190Ile mutant (enzyme)
chain: MKIGSGEKLLFIGDSITDCGRARPEGEGSFGALGTGYVAYVVGLLQAVYPELGIRVVNKGISGNTVRDLKARWEEDVIAQKPDWVSIMIGINDVWRQYDLPFMKEKHVYLDEYEATLRSLVLETKPLVKGIILMTPFYIEGNEQDPMRRTMDQYGRVVKQIAEETNSLFVDTQAAFNEVLKTLYPAALAIDRVHPSVAGHMILARAFLREIGFEWVRSR
How did the “stoichiometry N” value (SEC [12]) turn out when B7 was run?
The value was 8.
